This note sets out measurements from patent US12281147.

The target of experiment [1] is wild-type human IL-21R (human) (UniProt Q9HBE5). Description: AlphaSeq yeast mating assay, unbuffered media.
For experiment [2] the target is unchanged. Description: AlphaSeq yeast mating assay, pH 7 media.
The target is the same in experiment [3]. Kind of experiment: AlphaSeq yeast mating assay, pH 6 media.
The target is the same in experiment [4]. Description: AlphaSeq yeast mating assay, pH 5 media.
In experiment [5] the target is human interleukin 21 receptor (IL-21R) (human) (UniProt Q9HBE5). Kind of experiment: AlphaSeq yeast mating, pH 7 media.
For experiment [6] the target is unchanged. Kind of experiment: AlphaSeq yeast mating, pH 5 media.
Experiment [7] shares this target. Kind of experiment: AlphaSeq yeast mating, unbuffered media.
For experiment [8] the target is unchanged. Description: AlphaSeq yeast mating, pH 6 media.
The target in experiment [9] is recombinant human IL-21R His tag (Acro Biosystems) (human) (UniProt Q9HBE5). Kind of experiment: BLI. Background: In BLI a coated tip is dipped into the sample, and binding shifts an interference pattern.

By Kd is commonly meant a measure of binding affinity in units of concentration. For the substance “IL-21_A63T (from UniProt Q9HBE4 32-152) (ligand)”, the dissociation constant Kd in experiment [1] amounted to 3300 nM; in experiment [2], 210 nM; in [3] it was 21 nM.
On to “IL-21_A87N (from UniProt Q9HBE4 32-152) (ligand)”, for which the Kd in experiment [4] worked out at 110 nM; in experiment [2], 120 nM; in [3] it was 25 nM.
“IL-21_D33A (from UniProt Q9HBE4 32-152) (ligand)” showed an equilibrium dissociation constant (Kd) in experiment [5] of 83 nM.
Take “IL-21_D33N (from UniProt Q9HBE4 32-152) (ligand)”: the equilibrium dissociation constant (Kd) is 120 nM in [6], 45 nM in experiment [5], 14000 nM in experiment [7] and 27 nM in experiment [8].
For “IL-21_D33S (from UniProt Q9HBE4 32-152) (ligand)”, the dissociation constant (Kd) in [6] is 82 nM; in experiment [5], 27 nM.
Regarding “IL-21_D44N (from UniProt Q9HBE4 32-152) (ligand)”, the dissociation constant (Kd) in [6] was determined as 1200 nM; in [7], 60000 nM; in experiment [8], 92 nM.
Take “IL-21_E72H (from UniProt Q9HBE4 32-152) (ligand)”: the Kd was 3400 nM in [1], 21 nM in [2] and 11 nM in experiment [3].
As to “IL-21_E72S (from UniProt Q9HBE4 32-152) (ligand)”, the dissociation constant (Kd) was 530 nM in [6], 340 nM in experiment [5] and 140 nM in [8].
As for “IL-21_E93G (from UniProt Q9HBE4 32-152) (ligand)”, the dissociation constant (Kd) turned out to be 7200 nM in experiment [1], 150 nM in experiment [2] and 37 nM in experiment [3].
Regarding “IL-21_F60I (from UniProt Q9HBE4 32-152) (ligand)”, the dissociation constant (Kd) was 7700 nM in [1], 340 nM in experiment [4] and 190 nM in [2].
Regarding “IL-21_F60R (from UniProt Q9HBE4 32-152) (ligand)”, the Kd in [4] turned out to be 76 nM; in experiment [2] it was 27 nM; in experiment [3] it was 26 nM.
The corresponding values for “IL-21_F76M (from UniProt Q9HBE4 32-152) (ligand)” are 77 nM, 75 nM and 21 nM.
The corresponding values for “IL-21_H118K (from UniProt Q9HBE4 32-152) (ligand)” are 99000 nM, 370 nM and 3100 nM.
With “IL-21_H118R (from UniProt Q9HBE4 32-152) (ligand)”, the Kd in experiment [6] was determined as 20000 nM; in experiment [5] it was 260 nM; in [7], 11000 nM; in experiment [8], 950 nM.
As to “IL-21_I37Q (from UniProt Q9HBE4 32-152) (ligand)”, the dissociation constant (Kd) in [6] worked out at 250 nM; in experiment [5] it was 140 nM; in [8], 35 nM.
Turning to “IL-21_I45A (from UniProt Q9HBE4 32-152) (ligand)”, the results for the Kd in [7] and in experiment [8] were 8400 nM and 25 nM, respectively.
Regarding “IL-21_I95T (from UniProt Q9HBE4 32-152) (ligand)”, the dissociation constant (Kd) came to 9800 nM in experiment [6], 190 nM in experiment [5], 34000 nM in experiment [7] and 550 nM in experiment [8].
Regarding “IL-21_I96V (from UniProt Q9HBE4 32-152) (ligand)”, the dissociation constant Kd was determined as 3000 nM in experiment [1], 190 nM in experiment [4] and 62 nM in experiment [2].
In the case of “IL-21_L61I (from UniProt Q9HBE4 32-152) (ligand)”, the Kd in experiment [6] worked out at 370 nM; in experiment [5], 83 nM; in [8] it was 37 nM.
The like results for “IL-21_L120K (from UniProt Q9HBE4 32-152) (ligand)” were, in that order, 47 nM, 46 nM and 25 nM.
As to “IL-21_N51P (from UniProt Q9HBE4 32-152) (ligand)”, the equilibrium dissociation constant (Kd) in [6] turned out to be 160 nM; in [5] it was 47 nM; in experiment [7], 8500 nM; in [8] it was 24 nM.
With “IL-21_N54H (from UniProt Q9HBE4 32-152) (ligand)”, the Kd came to 77 nM in experiment [4], 27 nM in [2] and 20 nM in experiment [3].
“IL-21_N88K (from UniProt Q9HBE4 32-152) (ligand)”: the Kd in experiment [6] worked out at 170 nM; in [5] it was 140 nM; in [7], 21000 nM; in experiment [8], 43 nM.
Consider “IL-21_P62T (from UniProt Q9HBE4 32-152) (ligand)”, for which the Kd in experiment [1] came to 4500 nM; in experiment [2], 46 nM.
“IL-21_P133I (from UniProt Q9HBE4 32-152) (ligand)”: the figures for the Kd in experiment [2] and in experiment [3] were 110 nM and 44 nM, respectively.
Turning to “IL-21_Q145H (from UniProt Q9HBE4 32-152) (ligand)”, the equilibrium dissociation constant (Kd) was found to be 1000 nM in experiment [6], 32000 nM in [7] and 54 nM in [8].
Consider “IL-21_Q150R (from UniProt Q9HBE4 32-152) (ligand)”, for which the figures for the dissociation constant (Kd) in [5], in experiment [7] and in [8] were 94 nM, 14000 nM and 50 nM, respectively.
For “IL-21_R34E (from UniProt Q9HBE4 32-152) (ligand)”, in experiment [2], the Kd is 210 nM.
With “IL-21_R34G (from UniProt Q9HBE4 32-152) (ligand)”, the equilibrium dissociation constant (Kd) in [6] amounted to 6400 nM; in experiment [7], 9900 nM; in experiment [8], 150 nM.
For “IL-21_R34H (from UniProt Q9HBE4 32-152) (ligand)”, the dissociation constant (Kd) in experiment [5] is 200 nM; in [7], 10000 nM.
Regarding “IL-21_R34K (from UniProt Q9HBE4 32-152) (ligand)”, the values for the Kd in [6], in [7] and in experiment [8] were 390 nM, 14000 nM and 47 nM, respectively.
For “IL-21_R34W (from UniProt Q9HBE4 32-152) (ligand)”, the figures for the dissociation constant (Kd) in experiment [5], in experiment [7] and in experiment [8] were 190 nM, 20000 nM and 96 nM, respectively.
“IL-21_S74A (from UniProt Q9HBE4 32-152) (ligand)”: the Kd came out at 4400 nM in experiment [1], 140 nM in experiment [4] and 160 nM in experiment [2].
On to “IL-21_S74N (from UniProt Q9HBE4 32-152) (ligand)”, for which the results for the Kd in experiment [6], in experiment [5] and in [7] were 48000 nM, 410 nM and 32000 nM, respectively.
The like results for “IL-21_S77K (from UniProt Q9HBE4 32-152) (ligand)” were, in that order, 190 nM, 170 nM and 14000 nM.
For the substance “IL-21_S86I (from UniProt Q9HBE4 32-152) (ligand)”, the dissociation constant (Kd) is 110 nM in experiment [4] and 52 nM in [2].
For “IL-21_S99H (from UniProt Q9HBE4 32-152) (ligand)”, the Kd in experiment [5] was 25 nM; in experiment [7] it was 60000 nM.
Take “IL-21_S109K (from UniProt Q9HBE4 32-152) (ligand)”: the dissociation constant (Kd) stood at 43 nM in [6], 40000 nM in [7] and 26 nM in [8].
Take “IL-21_T89L (from UniProt Q9HBE4 32-152) (ligand)”: the Kd in [6] was determined as 1000 nM; in experiment [5], 140 nM; in experiment [7], 16000 nM; in experiment [8], 110 nM.
As to “IL-21_V53T (from UniProt Q9HBE4 32-152) (ligand)”, the dissociation constant (Kd) is 9600 nM in experiment [6] and 30000 nM in experiment [7].
Turning to “IL-21_V57R (from UniProt Q9HBE4 32-152) (ligand)”, the Kd came out at 50 nM in experiment [6], 50 nM in [5], 14000 nM in [7] and 16 nM in experiment [8].
With “IL-21_V98H (from UniProt Q9HBE4 32-152) (ligand)”, the values for the Kd in experiment [6], in [7] and in [8] were 170 nM, 8800 nM and 26 nM, respectively.
“IL-21_W73A (from UniProt Q9HBE4 32-152) (ligand)”: the Kd in experiment [6] is 3500 nM; in experiment [5], 170 nM; in experiment [7] it was 26000 nM; in experiment [8] it was 360 nM.
Turning to “IL-21_W73L (from UniProt Q9HBE4 32-152) (ligand)”, the figures for the dissociation constant Kd in [6], in experiment [7] and in [8] were 5200 nM, 33000 nM and 200 nM, respectively.
In the case of “IL-21_W73Q (from UniProt Q9HBE4 32-152) (ligand)”, the Kd in experiment [5] came out at 120 nM; in experiment [7], 15000 nM; in experiment [8], 88 nM.
Consider “IL-21_Y52Q (from UniProt Q9HBE4 32-152) (ligand)”, for which the dissociation constant Kd in experiment [6] is 55000 nM; in experiment [5], 89 nM; in experiment [7], 63000 nM; in experiment [8], 390 nM.
Turning to “IL-21_human_D44P Fc fusion protein (from UniProt Q9HBE4 30-162)”, in experiment [9], the Kd came to 1360 nM.
As to “IL-21_human_F76M Fc fusion protein (from UniProt Q9HBE4 30-162)”, the dissociation constant (Kd) in experiment [9] came out at 11.8 nM.
The same measure, in the same setting: the figure for “IL-21_human_F79P Fc fusion protein (from UniProt Q9HBE4 30-162)” is 11.1 nM; for “IL-21_human_I45G Fc fusion protein (from UniProt Q9HBE4 30-162)” it is 12 nM; for “IL-21_human_P108G Fc fusion protein (from UniProt Q9HBE4 30-162)” it is 29 nM.
Regarding “IL-21_human_R38K Fc fusion protein (from UniProt Q9HBE4 30-162)”, in experiment [9], the equilibrium dissociation constant (Kd) was 313 nM.
Consider “IL-21_human_V53N Fc fusion protein (from UniProt Q9HBE4 30-162)”, for which the dissociation constant (Kd) in experiment [9] was found to be 87.1 nM.
On the same count and under the same terms, the figure for “IL-21_human_V53T Fc fusion protein (from UniProt Q9HBE4 30-162)” is 7.86 nM.
The same measure, in the same setting: under “IL-21_human_W73V Fc fusion protein (from UniProt Q9HBE4 30-162)” stands 6.3 nM.
